Patent publication US20200299730A1

Assays:
Test in all cases: cell-based or functional assay
[1] = target: MART-1 peptide pulsed on HLA-A02 expressing K562 target cells (human)
[2] = target: MART-1 peptide pulsed on K562 target cells expressing the non-cognate MHC HLA-A01 (human)
[3] = target: MART1 peptide-HLA (pHLA) single polypeptide chain (antigenic peptide, β2-microglobulin, HLA-A2 domains) constitutively expressed on K562 target cells (human)

MART-1 (F5) TCR expressed by lentiviral transduction (pCCLc-MND-F5TCR-Myc271), on human CD3+ T cells (TCR; unit assumed)
Cytotoxic Killing [1]: 38.1%
Cytotoxic Killing [2]: 8.5%
Cytotoxic Killing [3]: 39.4%

MART-1 neoTCR (F5) encoded by HR template NTC9385R-TRAC(1k)DTS_P2A.F5.TRBopt.f-P2A.TRA(Va)opt (SEQ ID NO: 10), on edited primary human T cells
single-cell secretome (Isoplexis), CD8+ T cells producing more than one cytokine [1]: < 40%

MART-1 neoTCR (F5) encoded by HR template NTC9385R-TRAC(1k)DTS_P2A.F5.TRBopt.f-P2A.TRAopt.BGHpA (SEQ ID NO: 9), on edited primary human T cells (TCR; unit assumed)
Cytotoxic Killing [1]: 25.6%
Cytotoxic Killing [2]: 10.6%
Cytotoxic Killing [3]: 34.5%

NY-ESO (1G4) TCR expressed by lentiviral transduction (pCCLc-MND-1G4TCR-Myc271), on human CD3+ T cells (TCR; unit assumed)
Cytotoxic Killing [1]: 8.7%
Cytotoxic Killing [2]: 8.3%
Cytotoxic Killing [3]: 8.4%
